From PMC5427921, “PRL3 phosphatase active site is required for binding the putative magnesium transporter CNNM3” (Scientific Reports, 2017)
One block for each substance: values may come before it.

Legend:
[1] = molecular target: CNNM3 CBS-pair domain as a GST fusion (human) (UniProt Q8NE01); assay: ITC; syringe 160 μM PRL2 or PRL3, cell 16 μM CNNM3 CBS-pair domain as a GST fusion; 22 °C; 30 injections of 10 μl; fitted to a single set of identical sites
[2] = molecular target: CNNM2 CBS-pair domain (Homo sapiens) (UniProt Q9H8M5); conditions: cited from earlier work
CNNM2 CBS-pair domain (Homo sapiens), sequence (Q9H8M5 429-584): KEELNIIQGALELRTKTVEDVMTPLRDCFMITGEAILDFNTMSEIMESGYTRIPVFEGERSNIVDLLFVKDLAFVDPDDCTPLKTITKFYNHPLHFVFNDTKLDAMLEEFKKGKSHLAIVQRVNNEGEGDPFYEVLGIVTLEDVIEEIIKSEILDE

[3] = molecular target: CNNM3 CBS-pair domain (Homo sapiens) (UniProt Q8NE01); conditions: cited from earlier work
CNNM3 CBS-pair domain (Homo sapiens), sequence (Q8NE01 309-452): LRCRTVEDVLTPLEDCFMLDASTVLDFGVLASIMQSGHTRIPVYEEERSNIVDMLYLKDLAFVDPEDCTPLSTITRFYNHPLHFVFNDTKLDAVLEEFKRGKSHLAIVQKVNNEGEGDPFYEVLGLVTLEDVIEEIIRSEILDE

CNNM3 CBS-pair domain as a GST fusion (human), sequence (Q8NE01 309-452): as above
PRL1, sequence (Q93096 1-170): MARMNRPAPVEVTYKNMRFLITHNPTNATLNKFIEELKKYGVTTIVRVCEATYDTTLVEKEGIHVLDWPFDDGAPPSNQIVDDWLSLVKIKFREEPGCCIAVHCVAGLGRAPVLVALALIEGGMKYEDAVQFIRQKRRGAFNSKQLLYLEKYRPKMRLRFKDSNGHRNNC
PRL2, sequence (Q12974 1-164): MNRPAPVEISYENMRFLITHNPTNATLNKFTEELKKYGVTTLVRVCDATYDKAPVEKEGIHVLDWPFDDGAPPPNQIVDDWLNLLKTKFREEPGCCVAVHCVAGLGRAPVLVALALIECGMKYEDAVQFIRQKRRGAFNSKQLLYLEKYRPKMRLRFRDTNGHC

dH [1]: -16.6 kcal/mol | stoichiometry N [1]: 1.02
Substance: PRL2 phosphatase (as used in ITC) (from UniProt Q12974 1-167) (enzyme)

Substance: PRL1 (from UniProt Q93096)
Kd [2]: 640 nM

Substance: PRL2 (from UniProt Q12974)
Kd [3]: 25 nM
